System: T1, CC(C)(COP(=O)(O)OP(=O)(O)OC[C@H]1O[C@@H](n2cnc3c(N)ncnc32)[C@H](O)[C@@H]1OP(=O)(O)O)[C@@H](O)C(=O)NCCC(=O)NCCSC(=O)CCCCCCCCCCCCCCCNc1ccc([N+](=O)[O-])c2nonc12
T1 construct: full length, HA tag kept (pEF-Bos-HA), HEK293 membrane fraction
Experiment: auto-S-palmitoylation of HEK293 membranes, SDS-PAGE fluorescence normalised to tag Western blot
Type: cell-based, Mus musculus
Conditions: pH 7.4, 37 °C, labelled compound, covalent thioester at active-site Cys

Sequence of mouse zDHHC17 (Mus musculus) (chain, as listed by the source): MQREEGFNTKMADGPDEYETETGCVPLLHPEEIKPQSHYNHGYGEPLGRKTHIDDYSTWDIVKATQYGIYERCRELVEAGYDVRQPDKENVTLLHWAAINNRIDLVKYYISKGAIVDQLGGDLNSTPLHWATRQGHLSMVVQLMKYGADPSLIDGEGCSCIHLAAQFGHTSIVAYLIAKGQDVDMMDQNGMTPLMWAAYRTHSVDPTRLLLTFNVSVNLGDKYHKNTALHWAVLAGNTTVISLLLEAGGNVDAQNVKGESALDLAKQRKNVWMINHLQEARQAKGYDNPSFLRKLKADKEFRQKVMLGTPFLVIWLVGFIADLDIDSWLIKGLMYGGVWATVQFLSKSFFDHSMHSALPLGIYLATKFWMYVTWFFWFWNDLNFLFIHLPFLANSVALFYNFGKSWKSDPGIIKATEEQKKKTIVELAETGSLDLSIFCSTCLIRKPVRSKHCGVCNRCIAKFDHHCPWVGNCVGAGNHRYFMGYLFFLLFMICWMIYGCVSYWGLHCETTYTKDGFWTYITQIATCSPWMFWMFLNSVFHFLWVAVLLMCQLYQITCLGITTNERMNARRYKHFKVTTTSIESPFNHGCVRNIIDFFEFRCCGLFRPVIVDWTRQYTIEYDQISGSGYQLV

## mouse zDHHC17 (Mus musculus)
  Km: 6.20 ± 1.20 µM

— PMC11870023, “A facile assay for zDHHC palmitoyl transferase activation elucidates effects of mutation and modification” (Journal of Lipid Research, 2025)
